Data: the supplement of paper PMC10567573

B1: DVL3 (parent)
chain: YNPHPGFPELGYSYGGGSASSQHS

Variants of: B1
Assay: protein stability index of a GFP-peptide fusion (GPS, HEK-293T) (PSI 1-6); higher = more stable
Details: c terminus: a fixed tail appended
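Further: lentivirally expressed fusions sorted by FACS into six bins by GFP to DsRed ratio, PSI derived from sequencing read proportions per bin multiplied by bin number.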

| Variant | protein stability index |
| --- | --- |
| P8L | 2.12 |
| P8I | 1.71 |
| P8R | 2.7 |
| P8V | 2.57 |
| P8T | 3.11 |
| P8G | 3.26 |
| P8A | 2.37 |
| P8K | 2.38 |
| P8C | 2.54 |
| P8Q | 2.67 |
| P8Y | 2.33 |
| P8N | 3 |
| P8W | 2.48 |
| P8M | 2.52 |
| P8E | 3.16 |
| P8F | 2.23 |
| P8S | 2.73 |
| P8D | 3.37 |
| P8H | 2.38 |
| F7N | 3.38 |
| F7M | 3.19 |
| F7S | 2.59 |
| F7C | 2.85 |
| F7W | 2.14 |

| Variant | protein stability index |
| --- | --- |
| F7A | 2.6 |
| F7D | 2.44 |
| F7T | 3.44 |
| F7G | 3 |
| F7H | 2.98 |
| F7R | 2.86 |
| F7V | 3.01 |
| F7K | 3.68 |
| F7Q | 3.23 |
| F7E | 2.7 |
| F7P | 3.44 |
| F7Y | 2.68 |
| F7I | 2.87 |
| F7L | 3.35 |
| S13N | 3.08 |
| S13T | 2.23 |
| S13Q | 3 |
| S13D | 3.52 |
| S13G | 2.55 |
| S13I | 2.24 |
| S13F | 1.95 |
| S13W | 2.53 |
| S13R | 2.85 |
| S13M | 2.67 |

| Variant | protein stability index |
| --- | --- |
| S13Y | 2.19 |
| S13K | 2.94 |
| S13P | 2.58 |
| S13C | 1.78 |
| S13H | 2.59 |
| S13V | 1.71 |
| S13E | 3.71 |
| S13L | 2.13 |
| S13A | 2.95 |
| S18M | 2.08 |
| S18W | 1.65 |
| S18A | 2.94 |
| S18H | 2.53 |
| S18I | 2.49 |
| S18F | 2.58 |
| S18D | 2.85 |
| S18E | 3.19 |
| S18G | 2.68 |
| S18R | 2.44 |
| S18V | 2.72 |
| S18P | 2.71 |
| S18N | 3 |
| S18T | 2.26 |
| S18K | 3.09 |

| Variant | protein stability index |
| --- | --- |
| S18Q | 2.92 |
| S18L | 1.83 |
| S18C | 2.57 |
| S18Y | 2.11 |
| P3D | 2.81 |
| P3Q | 3.05 |
| P3Y | 3.18 |
| P3W | 2.51 |
| P3C | 3.32 |
| P3M | 3.01 |
| P3G | 2.19 |
| P3I | 2.86 |
| P3V | 3.08 |
| P3R | 3.17 |
| P3S | 2.67 |
| P3K | 3.43 |
| P3T | 3.08 |
| P3F | 2.7 |
| P3E | 2.75 |
| P3H | 2.95 |
| P3N | 2.79 |
| P3L | 3.46 |
| H4Q | 2.56 |
| H4D | 3.9 |

| Variant | protein stability index |
| --- | --- |
| H4P | 2.29 |
| H4T | 2.34 |
| H4R | 2.8 |
| H4F | 2.16 |
| H4E | 2.7 |
| H4I | 2.51 |
| H4A | 2.06 |
| H4M | 2.69 |
| H4S | 2.1 |
| H4G | 2.01 |
| H4C | 2.58 |
| H4W | 2.44 |
| H4L | 2.77 |
| H4K | 3.61 |
| H4V | 2.75 |
| H4N | 2.73 |
| H4Y | 2.35 |
| G15W | 2.3 |
| G15R | 2.33 |
| G15P | 2.9 |
| G15K | 2.91 |
| G15A | 2.43 |
| G15H | 2.3 |
| G15V | 2.22 |

| Variant | protein stability index |
| --- | --- |
| G15F | 2.54 |
| G15I | 2.63 |
| G15N | 2.63 |
| G15T | 3.05 |
| G15Q | 2.63 |
| G15C | 2.11 |
| G15S | 2.86 |
| G15L | 2.24 |
| G15E | 3.33 |
| G15D | 3.37 |
| G15M | 2.57 |
| G15Y | 1.82 |
| P5Y | 2.35 |
| P5F | 2.44 |
| P5T | 2.36 |
| P5E | 3.27 |
| P5R | 2.37 |
| P5L | 2.59 |
| P5I | 2.4 |
| P5N | 2.75 |
| P5G | 2.32 |
| P5W | 2.2 |
| P5M | 2.31 |
| P5D | 3.67 |

| Variant | protein stability index |
| --- | --- |
| P5A | 2.58 |
| P5H | 2.36 |
| P5C | 2.22 |
| P5V | 2.41 |
| P5K | 2.31 |
| P5Q | 3.26 |
| P5S | 2.64 |
| A19P | 2.74 |
| A19T | 2.53 |
| A19V | 2.03 |
| A19W | 1.4 |
| A19H | 2.3 |
| A19F | 2.09 |
| A19R | 3.04 |
| A19N | 3.07 |
| A19K | 2.94 |
| A19S | 2.79 |
| A19G | 3.57 |
| A19M | 2.57 |
| A19D | 3.01 |
| A19Y | 2.4 |
| A19C | 2.19 |
| A19E | 2.92 |
| A19L | 2.17 |

| Variant | protein stability index |
| --- | --- |
| A19I | 2.3 |
| A19Q | 2.99 |
| Y14I | 2.64 |
| Y14K | 2.95 |
| Y14S | 3.48 |
| Y14M | 2.86 |
| Y14W | 2.76 |
| Y14P | 3.32 |
| Y14A | 3.77 |
| Y14V | 3.26 |
| Y14R | 3.05 |
| Y14C | 3.1 |
| Y14G | 3.69 |
| Y14H | 3.71 |
| Y14L | 2.69 |
| Y14N | 3.59 |
| Y14F | 2.4 |
| Y14E | 4.1 |
| Y14Q | 3.15 |
| Y14D | 3.38 |
| Y14T | 3.24 |
| G11P | 2.29 |
| G11E | 3.4 |
| G11M | 3.03 |

| Variant | protein stability index |
| --- | --- |
| G11S | 2.71 |
| G11I | 2.24 |
| G11Y | 2.66 |
| G11K | 3.13 |
| G11D | 2.82 |
| G11A | 2.76 |
| G11R | 3.24 |
| G11L | 2.04 |
| G11N | 2.72 |
| G11W | 2.29 |
| G11H | 2.46 |
| G11T | 2.76 |
| G11Q | 3.29 |
| G11C | 2.3 |
| G11V | 2.44 |
| E9G | 2.16 |
| E9Q | 2.04 |
| E9Y | 1.14 |
| E9T | 1.84 |
| E9M | 2.69 |
| E9L | 3.13 |
| E9S | 1.59 |
| E9P | 3.58 |
| E9H | 2.19 |

| Variant | protein stability index |
| --- | --- |
| E9D | 2.11 |
| E9R | 2.44 |
| E9A | 2.3 |
| E9I | 1.18 |
| E9C | 2.5 |
| E9N | 2.46 |
| E9K | 1.8 |
| G16E | 3.61 |
| G16V | 1.89 |
| G16S | 2.95 |
| G16W | 2.04 |
| G16Q | 3.02 |
| G16R | 2.63 |
| G16K | 2.93 |
| G16D | 3.4 |
| G16P | 2.74 |
| G16C | 2.04 |
| G16A | 3.45 |
| G16F | 1.79 |
| G16M | 2.79 |
| G16T | 2.57 |
| G16I | 2 |
| G16N | 2.99 |
| G16H | 2.72 |

| Variant | protein stability index |
| --- | --- |
| G16L | 2.3 |
| G16Y | 2.32 |
| G6C | 2.53 |
| G6T | 2.28 |
| G6S | 2.69 |
| G6N | 2.93 |
| G6A | 2.78 |
| G6I | 2.38 |
| G6V | 2.7 |
| G6R | 2.46 |
| G6F | 2.42 |
| G6D | 3.14 |
| G6Q | 3.44 |
| G6M | 2.74 |
| G6K | 3.05 |
| G6H | 2.67 |
| G6W | 1.74 |
| G6E | 3.84 |
| G6Y | 2.17 |
| G6L | 2.48 |
| L10Y | 2.57 |
| L10I | 2.6 |
| L10N | 3.74 |
| L10S | 3.16 |

| Variant | protein stability index |
| --- | --- |
| L10E | 4.41 |
| L10C | 3.06 |
| L10D | 3.55 |
| L10T | 2.98 |
| L10Q | 3.18 |
| L10M | 2.04 |
| L10H | 3.4 |
| L10G | 2.94 |
| L10A | 3.17 |
| L10R | 3.64 |
| L10K | 3.05 |
| L10W | 1.3 |
| L10V | 3.17 |
| L10P | 3.04 |
| L10F | 2.92 |
| G17Y | 2.23 |
| G17K | 2.83 |
| G17P | 2.62 |
| G17D | 2.72 |
| G17V | 1.63 |
| G17L | 2.14 |
| G17H | 2.15 |
| G17W | 1.69 |
| G17S | 3.29 |

| Variant | protein stability index |
| --- | --- |
| G17A | 2.73 |
| G17F | 1.77 |
| G17I | 1.96 |
| G17N | 2.6 |
| G17E | 3.05 |
| G17C | 3.22 |
| G17R | 2.82 |
| G17Q | 2.87 |
| G17T | 2.85 |
| G17M | 2.25 |
| S20Q | 2.66 |
| S20P | 2.89 |
| S20T | 2.58 |
| S20K | 2.65 |
| S20L | 2.2 |
| S20I | 2.08 |
| S20A | 3.01 |
| S20H | 2.59 |
| S20C | 2.88 |
| S20G | 2.97 |
| S20V | 3.12 |
| S20E | 2.95 |
| S20F | 2 |
| S20M | 2.46 |

| Variant | protein stability index |
| --- | --- |
| S20D | 3.09 |
| S20N | 2.74 |
| S20R | 2.73 |
| Y12H | 3.26 |
| Y12M | 3.29 |
| Y12F | 3.09 |
| Y12N | 3.96 |
| Y12A | 2.87 |
| Y12L | 2.03 |
| Y12I | 2.06 |
| Y12D | 4.19 |
| Y12W | 2.19 |
| Y12C | 2.27 |
| Y12S | 3.15 |
| Y12Q | 3.42 |
| Y12R | 2.68 |
| Y12E | 3.79 |
| Y12P | 1.99 |
| Y12G | 3.51 |
| Y12V | 1.74 |
| Y12T | 3.01 |
| Y12K | 2.47 |
